According to US20190376079A1 (WHITEHEAD INSTITUTE FOR BIOMEDICAL RESEARCH, published 2019):

Target: SBP-tagged EF2 purified from WDR85 deficient (WDR85GT) cells (human, UniProt P13639 1-858)
Assay: co-purification with SBP-tagged EF2 on streptavidin sepharose from WDR85GT cells; silver stain, mass spectrometry, immunoblot
Source text: Proteins were separated using SDS-PAGE gel electrophoreses and visualized using silverstaining. For mass spectrometry, the EF2 band was purified from gel and digested using trypsin.

B1: DPH5 (enzyme)
chain: MLYLIGLGLGDAKDITVKGLEVVRRCSRVYLEAYTSVLTVGKEALEEFYGRKLVVADREEVEQEADNILKDADISDVAFLVVGDPFGATTHSDLVLRATKLGIPYRVIHNASIMNAVGCCGLQLYKFGETVSIVFWTDTWRPESFFDKVKKNRQNGMHTLCLLDIKVKEQSLENLIKGRKIYEPPRYMSVNQAAQQLLEIVQNQRIRGEEPAVTEETLCVGLARVGADDQKIAAGTLRQMCTVDLGEPLHSLIITGGSIHPMEMEMLSLFSIPENSSESQSINGL
notes: also called methyltransferase DPH5
B1: binds.
